Reference: patent publication US20250340651A1 (CULLINAN MICA, published 2025)

T1: CD32A (167His)
T1 construct: also called FcγRIIA 167His; not shown: The vendor's tag
T1 chain: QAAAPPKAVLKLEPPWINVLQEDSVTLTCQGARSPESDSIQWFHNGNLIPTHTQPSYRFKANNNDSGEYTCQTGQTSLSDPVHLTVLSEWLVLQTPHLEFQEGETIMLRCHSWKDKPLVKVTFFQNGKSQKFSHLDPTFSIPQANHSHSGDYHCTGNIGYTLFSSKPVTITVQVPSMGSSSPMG

T2: CD32B (human, UniProt P31994)
T2 construct: also called FcγRIIB
T2 sequence (receptor, looked up): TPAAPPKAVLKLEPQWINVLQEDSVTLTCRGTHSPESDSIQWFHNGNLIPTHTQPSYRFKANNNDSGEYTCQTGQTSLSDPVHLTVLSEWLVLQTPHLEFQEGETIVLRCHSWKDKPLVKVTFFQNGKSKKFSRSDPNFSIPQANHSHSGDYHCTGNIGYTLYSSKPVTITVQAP

T3: Recombinant MICA*04 protein
T3 construct: Coated on ELISA plates
T3 sequence (Q29983 whole entry, species assumed, looked up): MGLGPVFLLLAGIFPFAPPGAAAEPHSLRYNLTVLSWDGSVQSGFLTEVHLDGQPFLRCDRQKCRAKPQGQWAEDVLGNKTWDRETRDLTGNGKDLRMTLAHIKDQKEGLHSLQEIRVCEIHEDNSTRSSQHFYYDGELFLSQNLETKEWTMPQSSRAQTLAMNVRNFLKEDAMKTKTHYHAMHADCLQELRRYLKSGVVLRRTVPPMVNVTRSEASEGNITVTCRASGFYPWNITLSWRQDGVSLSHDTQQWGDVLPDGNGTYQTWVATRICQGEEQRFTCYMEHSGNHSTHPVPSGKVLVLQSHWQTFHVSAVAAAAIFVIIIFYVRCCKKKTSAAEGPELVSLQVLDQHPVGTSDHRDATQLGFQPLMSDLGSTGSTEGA

T4: Recombinant MICA*08 protein
T4 construct: Coated on ELISA plates
T4 sequence (Q29983 whole entry, species assumed, looked up): T3 sequence (Q29983 whole entry, species assumed, looked up)

T5: Recombinant MICA*09 protein
T5 construct: Coated on ELISA plates
T5 sequence (Q29983 whole entry, species assumed, looked up): T3 sequence (Q29983 whole entry, species assumed, looked up)

T6: Recombinant MICB protein (UniProt Q29980 23-298, limits assumed)
T6 construct: Coated on ELISA plates
T6 sequence (looked up): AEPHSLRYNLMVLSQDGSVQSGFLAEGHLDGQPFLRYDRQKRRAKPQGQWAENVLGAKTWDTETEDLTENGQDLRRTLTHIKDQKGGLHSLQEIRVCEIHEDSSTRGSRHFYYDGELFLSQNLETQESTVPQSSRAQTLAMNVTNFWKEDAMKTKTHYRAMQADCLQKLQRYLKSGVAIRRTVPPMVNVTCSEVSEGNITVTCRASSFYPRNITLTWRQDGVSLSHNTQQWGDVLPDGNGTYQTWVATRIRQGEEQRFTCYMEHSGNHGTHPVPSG

T7: Recombinant MICA*01 protein (Homo sapiens (Human), UniProt Q29983 24-307)
T7 construct: Coated on ELISA plates
T7 sequence: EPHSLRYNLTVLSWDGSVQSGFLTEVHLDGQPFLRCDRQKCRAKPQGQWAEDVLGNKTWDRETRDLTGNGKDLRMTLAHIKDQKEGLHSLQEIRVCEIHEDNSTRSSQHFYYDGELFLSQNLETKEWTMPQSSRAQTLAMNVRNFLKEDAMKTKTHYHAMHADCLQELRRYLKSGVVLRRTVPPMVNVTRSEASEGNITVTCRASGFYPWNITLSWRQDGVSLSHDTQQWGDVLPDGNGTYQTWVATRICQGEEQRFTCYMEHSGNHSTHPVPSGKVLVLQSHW

T8: Recombinant MICA*02 protein
T8 construct: Coated on ELISA plates
T8 sequence (Q29983 whole entry, species assumed, looked up): T3 sequence (Q29983 whole entry, species assumed, looked up)

B1: 16F10.C12 (antibody, V domains shown)
VH: EVQLQESGPGLVAPSQSLSITCTVSGFSLTAFGVNWVRQPPGKGLEWLGMIWGDGNTDYNSTLRSRLSISKDNSKSQVFLKLNSLQTDDTARYFCARETYYGNYAGLGYWGQGTLVTVSA
VL: QIVLTQSPAIMSASIGERVTMTCTASSSVSSNYLHWYQQKPRSSPKLWIYTTSNLASGVPTRFSGSGSGTSYSLTISSMEAEDAATYYCHQFHRSPFTFGSGTKLEIK
notes: Mouse monoclonal: captured on anti-mouse IgG Fc sensors
B2: anti-MICA/B 3F9H1L3L wild type antibody (antibody, human IgG1, kappa)
heavy: not shown
light: DIVMTQSPLSLPVTPGEPASISCRSSKSLLHSNLNTYLYWFLQKPGQSPQILIYRMSNLASGVPDRFSGSGSGTAFTLKISRVEAEDVGVYYCMQHLEYPFTFGPGTKLEIKRTVAAPSVFIFPPSDEQLKSGTASVVCLLNNFYPREAKVQWKVDNALQSGNSQESVTEQDSKDSTYSLSSTLTLSKADYEKHKVYACEVTHQGLSSPVTKSFNRGEC
notes: also called CLN-619; CLN619; copies: 2 + 2
B3: anti-MICA/B 3F9H1L3L afucosylated antibody (antibody, human IgG1, kappa)
heavy: not shown
light: B2 light
modifications: afucosylated Fc N-glycan (Fc glycosylation site Asn 297, EU numbering), made with GlymaxX technology
notes: It differs only by lacking fucose on the Fc glycan; also called GLYMAXX; 3F9H1L3L GLYMAXX; copies: 2 + 2
B4: anti-MICA/B 3F9H1L3L antibody with the two heavy chain S239D and I332E mutations (antibody, human IgG1, kappa)
heavy: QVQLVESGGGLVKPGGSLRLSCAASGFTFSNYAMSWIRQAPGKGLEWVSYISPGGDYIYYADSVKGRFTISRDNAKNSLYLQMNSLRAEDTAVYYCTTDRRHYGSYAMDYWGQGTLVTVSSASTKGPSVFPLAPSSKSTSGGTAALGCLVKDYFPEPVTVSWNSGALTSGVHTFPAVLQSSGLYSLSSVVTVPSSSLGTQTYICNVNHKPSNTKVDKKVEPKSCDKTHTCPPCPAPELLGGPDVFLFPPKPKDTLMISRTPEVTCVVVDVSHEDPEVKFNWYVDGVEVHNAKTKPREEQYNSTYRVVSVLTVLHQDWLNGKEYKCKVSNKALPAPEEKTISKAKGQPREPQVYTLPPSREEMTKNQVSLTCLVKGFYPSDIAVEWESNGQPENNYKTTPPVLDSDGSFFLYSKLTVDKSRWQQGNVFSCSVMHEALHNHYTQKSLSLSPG
light: B2 light
notes: also called 3F9HIL3L S239D and I332E; CLN-619 DM; copies: 2 + 2
B5: 3F9.E4 (antibody, V domains shown)
VH: EVQLQESGEGLVKPGGSLKLSCAASGFTFSNYAMSWVRQTPEKRLEWVAYISPGGDYIYYADTVKGRFTISRDNARNTLYLQMSSLKSEDTAMYYCTTDRRHYGSYAMDYWGQGISVTVSS
VL: DIVMTQAAPSVPVTPGESVSISCRSSKSLLHSNGNTYLYWFLQRPGQSPQLLIYRMSNLASGVPDRFSGSGSGTAFTLRISRVEAEDVGVYYCMQHLEYPFTFGSGTKLEIK
notes: Mouse monoclonal: captured on anti-mouse IgG Fc sensors and detected with anti-mouse IgG; also called 3F9 antibody; anti-MICA/B mAb

Experiments:
[1] = target: MICA antigen of Table 2 (purified 6×His-MICA*08 or 6×His-MICA*04 protein); test: BLI (ForteBio Octet Red96); mAb captured on anti-mouse IgG Fc sensors, 6×His-MICA in solution, 1:1 model
Description: Affinity kinetics was determined on a ForteBio Octet Red96 analyzer. […] Sensors were washed in assay buffer and then incubated with purified 6×His-MICA*08 or 6×His-MICA*04 proteins (100 nM), in 2-fold dilution series for 5 minutes in assay buffer to determine association kinetics of the antibody with the protein antigen. Sensors were then incubated in assay buffer for 10 minutes to determine dissociation kinetics. The resulting kinetics parameters were calculated with ForteBio analysis suite 8.0 using a 1:1 model.

human FcRn = human FcRn (human, UniProt P55899 24-297; P61769 21-119, limits assumed); test: Biacore (SPR), steady state analysis, pH 6.0; Relative Binding +++
human FcRn, sequence (P55899 24-297 limits assumed, chain 1 of 2): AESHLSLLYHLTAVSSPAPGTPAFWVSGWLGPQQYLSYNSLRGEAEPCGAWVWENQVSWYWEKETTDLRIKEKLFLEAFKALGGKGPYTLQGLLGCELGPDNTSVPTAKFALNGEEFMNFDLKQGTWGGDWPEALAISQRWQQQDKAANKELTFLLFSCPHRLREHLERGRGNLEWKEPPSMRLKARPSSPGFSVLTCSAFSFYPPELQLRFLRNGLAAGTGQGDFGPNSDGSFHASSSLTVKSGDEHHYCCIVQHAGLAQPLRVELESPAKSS
human FcRn, sequence (P61769 21-119 limits assumed, chain 2 of 2): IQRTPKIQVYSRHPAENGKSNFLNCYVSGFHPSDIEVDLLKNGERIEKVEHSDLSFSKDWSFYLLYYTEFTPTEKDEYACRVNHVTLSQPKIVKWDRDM

CD16A (176 Phe) = target: T9, CD16A (176 Phe) (human, UniProt P08637); test: Biacore (SPR), receptor loaded on the chip, antibody as analyte, steady state analysis (FIG. 9)
T9 construct: also called FcγRIIIA 176Phe
T9 sequence (P08637 17-208 limits assumed): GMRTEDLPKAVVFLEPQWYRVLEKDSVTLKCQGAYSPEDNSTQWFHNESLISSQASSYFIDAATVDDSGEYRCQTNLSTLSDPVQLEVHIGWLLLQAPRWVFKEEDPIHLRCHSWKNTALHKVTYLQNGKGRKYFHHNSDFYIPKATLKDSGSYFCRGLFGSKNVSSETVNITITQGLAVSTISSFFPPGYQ

CD16A (176 Val) = target: T10, CD16A (176 Val) (human, UniProt P08637); test: as above
T10 construct: also called FcγRIIIA 176 Val
T10 sequence (P08637 17-208 F176V limits assumed): as the sequence (P08637 17-208 limits assumed) above, with F160V counted along it

human FcγRI = target: T11, human FcγRI (human, UniProt P12314 16-288, limits assumed); test: Biacore (SPR), receptor loaded on the chip, antibody 0.411 to 33.33 nM as analyte, 1:1 affinity analysis (FIG. 9)
T11 construct: Biacore partner; also called FcγR1
T11 sequence (P12314 16-288 limits assumed): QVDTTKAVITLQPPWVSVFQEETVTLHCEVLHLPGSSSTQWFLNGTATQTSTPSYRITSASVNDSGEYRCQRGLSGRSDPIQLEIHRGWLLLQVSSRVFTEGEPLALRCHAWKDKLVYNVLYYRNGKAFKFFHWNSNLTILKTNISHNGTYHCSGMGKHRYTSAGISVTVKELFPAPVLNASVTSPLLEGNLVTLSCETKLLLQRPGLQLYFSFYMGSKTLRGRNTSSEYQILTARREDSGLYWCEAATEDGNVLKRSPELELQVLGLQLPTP

CD32A (167His) = target: T1, CD32A (167His); test: Biacore (SPR), receptor loaded on the chip, antibody 296.3 to 24000 nM as analyte, steady state analysis (FIG. 9)
CD32B = target: T2, CD32B; test: as above
[2] = target: T3, Recombinant MICA*04 protein; test: ELISA on coated recombinant antigen (1 µg/ml), goat anti-mouse IgG-HRP, OD 450 nm
Description: (§1) Recombinant MICA*01, MICA*02, MICA*04, MICA*08, MICA*09, and MICB proteins were diluted to 1 μg/ml in 50 mM sodium carbonate buffer, pH 9.6, and coated onto high binding 96-well microplates (Corning #9018), 100 ng in 100 μl per well. The following morning, coated ELISA plates were washed three times with TBS-Tween-20, pH 7.4 and then blocked in SuperBlock T20 Blocking Buffer (Pierce #37536). After blocking, ELISA plates were washed once with TBS-T and incubated with serially diluted anti-MICA antibody ([…]) for approximately two hours at room temperature. Following the incubation, ELISA plates were washed three times with TBS-T and then incubated with Goat anti-Mouse IgG (H+L)-HRP conjugate (ThermoFisher Scientific #626520) for 45 minutes at room temperature with shaking (˜400 rpm). After the incubation, ELISA plates were washed three times with TBS-T and incubated with Super Sensitive Liquid Substrate TMB (Sigma #T4444), 100 μl per well, until color development was sufficient. The reaction was stopped with 1N sulfuric acid, 100 μl per well. Optical density (OD) values were measured at 450 nm using a microplate reader.

[3] = target: T4, Recombinant MICA*08 protein; test: as above
Description: as §1

[4] = target: T5, Recombinant MICA*09 protein; test: as above
Description: as §1

Recombinant MICB protein = target: T6, Recombinant MICB protein; test: as above
Description: as §1

[5] = target: T7, Recombinant MICA*01 protein; test: as above
Description: as §1

[6] = target: T8, Recombinant MICA*02 protein; test: as above
Description: as §1

Row | Binder | Kd [1] [nM] | koff [1] [s⁻¹] | kon [1] [M⁻¹ s⁻¹] | Kd (human FcRn) [nM] | binding result (CD16A (176 Phe)) | binding result (CD16A (176 Val)) | binding result (human FcγRI) | binding result (CD32A (167His)) | binding result (CD32B) | EC50 (read off the curve) [2] [µg/mL] | EC50 (read off the curve) [3] [µg/mL] | EC50 (read off the curve) [4] [µg/mL] | EC50 (read off the curve) (Recombinant MICB protein) [µg/mL] | EC50 (read off the curve) [5] [µg/mL] | EC50 (read off the curve) [6] [µg/mL]
1 | B1 | 6.45 | 0.000548 | 93300 | – | – | – | – | – | – | – | – | – | – | – | –
2 | B2 | – | – | – | 489 | binds | binds | binds | binds | binds | – | – | – | – | – | –
3 | B3 | – | – | – | 468 | binds | binds | binds | binds | binds | – | – | – | – | – | –
4 | B4 | – | – | – | 504 | binds | binds | binds | binds | binds | – | – | – | – | – | –
5 | B5 | 1.18 | 0.000421 | 383000 | – | – | – | – | – | – | ~0.03 | ~0.03 | ~0.03 | ~0.03 | ~0.03 | ~0.03
